From article PMC4303294 (Biochemistry, 2014)

Target: the molecule itself
Assay: SEC

B1: nitrophorin 4 (NP4) reconstituted with the symmetrical hemin, 2,4-dimethyldeuterohemin (natural protein, Rhodnius prolixus, UniProt Q94734 22-205, looked up)
chain: ACTKNAIAQTGFNKDKYFNGDVWYVTDYLDLEPDDVPKRYCAALAAGTASGKLKEALYHYDPKTQDTFYDVSELQVESLGKYTANFKKVDKNGNVKVAVTAGNYYTFTVMYADDSSALIHTCLHKGNKDLGDLYAVLNRNKDAAAGDKVKSAVSAATLEFSKFISTKENNCAYDNDSLKSLLTK
- stoichiometry N: 2
